Data reported in patent EP4806914A1.

B1: fourth anti-AAV-scFv [4] (scFv)
scFv: QSLEESGGDLVKPGASLTLTCTASGFSFSSSAYMCWVRQAPGKGLEWIGCMHTISSVDTYYASWAKGRFAISKASSTTVTLQMTSLTAADTATYFCARDDRNGYGYPYSFDIWGPGTLVTVTSGGGGSGGGGSGGGGSELDLTQTAASVEAAVGGTITIKCQASQTISSYLAWYQQKPGQPPKLLIYRASTLASGVSSRFKGSGSGTEYTLTISDLECADAATYYCLTYYGNSHNFGGGTEVVIKGSAAAGGGSEQKLISEEDLGGGSHHHHHH
B2: third anti-AAV-scFv [3] (scFv)
scFv: QSVEESGGDLVKPGASLTLTCTASGIDFSSGYDMCWVRQAPGKGLEWIGCIYTGGDSAWYASWAKGRFTISKTSSTTVTLQMTSLTGADTATYFCANDLDSGTVSIWGPGTLVTVTSGGGGSGGGGSGGGGSELVLTQTAASVSEPVGGTVTIKCQASQSISSWLSWYQQKPGQPPKLLIYQASKLASGVPSRFKGSGSGTQFTLTISDVVCDDAATYYCAGWTSSTTDGTAFGGGTEVVITGSAAAGGGSEQKLISEEDLGGGSHHHHHH
B3: first anti-AAV-scFv [1] (scFv)
scFv: QSLEESGGGLVKPGASLTLTCTASGFSFSSYGISWFRQAPGKGLEWIGTIYGGSSGSTYYASWAKGRFTISKTSSTTMTLQMASLTAADTATYFCARDRVGGNGYADLWGPGTLVTVTSGGGGSGGGGSGGGGSELVMTQTAASVEAAVGGTVTIKCQASQSISSYLAWYQQKPGQRPKLLIYRASTLASGVSSRFKGSGSGTEYTLTISDLECDDAATYYCQSHYDIRNYGVAFGGGTEVDIKRSAAAGGGSEQKLISEEDLGGGSHHHHHH
B4: second anti-AAV-scFv [2] (scFv)
scFv: QSLEESGGDLVKPGASLTLTCTASGFSFSSNYWMFWVRQAPGKGLEWIAHIYGGSSGSTYYASWAKGRFTISKTSSTTVTLQMTSLTAADTATYFCATVDNGYSDLKLWGPGTLVTVTSGGGGSGGGGSGGGGSELVLTQTADSVEAGVGGTVTIKCQASQSIRNWLSWYQQKPGQPPKLLISRASTLASGVPSRFSGSGSGTEFTLTISDLECDDGATYYCQSSFYADSGEPAFGGGTEVDIKRSAAAGGGSEQKLISEEDLGGGSHHHHHH

These binders were tested against AAV9 empty capsid (adeno-associated virus serotype 9 (AAV9)) (assay: ELISA, 0.1 ug AAV9 coated on Maxisorp plate, scFv detected with HRP-labeled anti-His-Tag antibody, A450-A650; reference: blank (BSA)).

Binder	IE/IB (ratio of ELISA absorbance for the empty capsid sample to that for the blank (BSA))
B1	3.09
B2	2.22
B3	1.5

Each binder was assayed against AAV9 full capsid (adeno-associated virus serotype 9 (AAV9)) (assay: ELISA, 0.1 ug AAV9 coated on Maxisorp plate, scFv detected with HRP-labeled anti-His-Tag antibody, A450-A650; reference: AAV9 empty capsid sample).

Binder	IF/IE (ratio of ELISA absorbance for the full capsid sample to that for the empty capsid sample)
B4	8.23
B1	7.17
B2	6.11
B3	6.54
